What all share (type): physicochemical
Data set [1] can be described thus: Stability of oil preparations on storage, standing or freeze-thawing (appearance). The procedure:
Egg PC SUVs at a concentration of 100 mg PC/ml were prepared as in Example 1. An insulin solution at 10 mg/ml was made by preparing an aqueous suspension at a slightly higher concentration, adding glacial acetic acid at a rate of 20 mg/g of insulin used, and then adding sufficient water to give the desired insulin concentration. After mixing and standing for 15 minutes, a clear solution was formed. To 1.25 ml of SUVs in a test-tube, were added 1.25 ml of insulin solution, and the mixture shell-frozen and freeze-dried overnight. The following day, 0.252 g of oleic acid was added and the tube vortexed to completely “wet” the lyophilate.
The HRPO solution was divided into two -equal portions, and one portion was put through five freeze-thaw cycles by cooling repeatedly to +4° C., solidifying the oleic acid each time, before bringing it back to room temperature.
The same procedure employed as described in Example 19, except that bovine brain sphingomyelin was used instead of phosphatidyl choline, resulting in proportions by weight of insulin/sphingomyelin/oleic acid of 5/50/200.

Data set [2] in a line: Dispersion of hydrophilic species/amphiphile array in hydrophobic solvent: visual optical clarity.
Data set [3] in a line: Turbidity of oil preparations by optical density / absorbance (plate reader). As to conditions: Example 9: egg lysophosphatidyl choline, oleic acid, 4.6 mg insulin/g. On the procedure:
It is very much preferred that the preparations of the invention are optically clear and this can be monitored by measuring turbidity at visible wave lengths and, in some cases, by checking for sedimentation over a period of time. […]
Aprotinin was dissolved in distilled water at a concentration of 10 mg/ml. Hexadecyl phosphocholine (HDPoC) was dissolved in distilled water at a concentration of 100 mg/ml. To aliquots of 100 μl of aprotinin solution, volumes of HDPOC were added ranging from 0 through to 10, 20, 30, 40 to 50 μl. The mixtures were frozen at −20° C. and lyophilised overnight. The following day 100 μl of oleic acid was added to each sample and shaken for one hour at room temperature on an orbital shaker.
Octyl glucoside was dissolved in distilled water and dispensed into wells of a microplate to give the following amounts of amphiphile per well: −0, 0.5, 1.0, 1.5, 2.0, 2.5, 5, 7.5 and 10 mg. Aprotinin was dissolved in distilled water at a concentration of 5 mg/ml, and 100 μl was dispensed into each well above, containing 0.5 mg of protein. The plate was mixed well, frozen at −20° C. and lyophilised overnight. The following day, […] of oleic acid was added to each well. The plate was shaken at room temperature, and optical density measurements at 550 nm taken at intervals with a plate reader. A low absorbance value indicates a low level of scattering, and corresponds to effective dispersion of protein in oil.
The results, expressed in terms of optical density as a function of octyl glucoside concentration (at constant protein concentration) at different times after addition of oleic acid are given in the table and accompanying graph.

The nature of data set [4]: Centrifugation of melanin dispersions in M818.
A short description of data set [5]: Optical density at 600 nm of melanin solutions in oil (M818) and water. Particulars: for Measurement at 600 nm, Water: Example 26: melanin alone in distilled water. On the procedure: 10 mg of melanin were added to 1 ml of distilled water, and dissolved after raising pH with ammonium hydroxide solution. 50 ul of this concentrated solution was diluted 20-fold by addition to 950 ul of distilled water. To two rows of seven wells of a microplate 0, 12.5, 25, 37.5, and 50 ul of the dilute solution were added, and 12.5 and 25 ul of the concentrated solution. To each well of one row was added 100 ul of a soya phosphatidyl choline dispersion prepared by sonication for ten minutes with cooling at a concentration of 100 mg/ml. The other row was left untouched, the plate was mixed well, frozen at −20° C. and lyophilised overnight. The following day, 100 ul of M818 were added to wells in the row containing melanin/lipid complex, and 100 ul of distilled water was added to the wells in the row containing melanin alone. […] It will be seen from the table and accompanying graph that Beer-Lambert's law is obeyed over this concentration range (ie the response curve is linear), and that the behaviour of melanin is identical for both oil and aqueous solutions.

Regarding insulin, the “change in appearance (eg sedimentation) on storage” value in data set [1] (Example 5: 7 weeks storage under nitrogen in a sealed tube at room temperature) was “no apparent change in the appearance”. Moreover, in data set [1] (Example 20: sphingomyelin/oleic acid, room temperature for several days), the appearance on standing result is given as “solid opaque gel”. In addition, in data set [1] (Example 20: sphingomyelin/oleic acid, warming to 37° C.), the “appearance of gel on warming” value is recorded as “clear solution again”. Further, the appearance of preparation result in data set [2] (Example 5: egg PC SUVs, 0.252 g oleic acid, left overnight) is on record as “yellow, optically clear dispersion displaying strong opalescence”. The appearance of dispersion entry in data set [2] (Example 6: 5 mg soy PC, 0.47 mg protein, 100 mg diolein, initially granular) was “became clear after 2 hours”; in data set [2] (Example 8: DPPC SUVs 15 mg, 1.4 mg protein, 300 mg oleic acid) it was “clear”; in data set [2] (Example 9: egg lysophosphatidyl choline micelles, 0.3 g oleic acid), “clear dispersion”; in data set [2] (Example 10: soy PC SUVs, 300 mg Miglyol 810, following day), “slightly opalescent”; in data set [2] (Example 10: soy PC SUVs, 300 mg Miglyol 812, following day), “completely clear”; in data set [2] (Example 10: soy PC SUVs, 300 mg Miglyol 818, following day) it was “completely clear”. Further, the appearance of dispersion result in data set [2] (Example 10: soy PC SUVs, 300 mg Miglyol 829, following day) was “turbid gel”; in data set [2] (Example 10: soy PC SUVs, 300 mg Miglyol 840, following day) it was “completely clear”; in data set [2] (Example 36: AOT amphiphile, 200 mg octanol, standing overnight), “clear after standing overnight”. Besides, in data set [2] (Example 9: egg lysophosphatidyl choline, oleic acid), the “insulin content of clear dispersion” value is on record as 4.6 mg insulin/g of oleic acid. Moreover, the appearance of solution entry in data set [2] (Example 20: bovine brain sphingomyelin, insulin/sphingomyelin/oleic acid 5/50/200, one hour mixing) is given as “completely clear solution”. In data set [2] (Example 33: soy PC SUV, melts of tripalmitin, triheptadecanoin or tristearin with 2% oleic acid, 78 C, 1 to 2 hours), the appearance of dispersions entry is recorded as “almost clear dispersions”. In addition, in data set [3], the “absorbance at 600 nm” value is 0.023.
Consider melanin, for which the “behaviour of dispersion on centrifugation” value was “black dispersion, which sedimented out after centrifugation giving a clear supernatant” in data set [4] (Example 26: dispersed in M818 by sonication in the absence of phosphatidyl choline) and “No such changes were observed after centrifugation” in data set [4] (Example 26: melanin/lipid complex dispersed in M818). Further, the “Measurement at 600 nm, Water” value in data set [5] (Concn 0.0625 mg/ml) worked out at 0.072; in data set [5] (Concn 0.125 mg/ml) it was 0.159; in data set [5] (Concn 0.187 mg/ml), 0.23; in data set [5] (Concn 0.25 mg/ml) it was 0.333; in data set [5] (Concn 1.25 mg/ml), 1.259; in data set [5] (Concn 2.5 mg/ml), 2.653. The “Measurement at 600 nm, Miglyol” value in data set [5] (Example 26: melanin/soya PC complex in M818, Concn 0.0625 mg/ml) is recorded as 0.078; in data set [5] (Example 26: melanin/soya PC complex in M818, Concn 0.125 mg/ml), 0.157; in data set [5] (Example 26: melanin/soya PC complex in M818, Concn 0.187 mg/ml) it was 0.23; in data set [5] (Example 26: melanin/soya PC complex in M818, Concn 0.25 mg/ml), 0.306; in data set [5] (Example 26: melanin/soya PC complex in M818, Concn 1.25 mg/ml), 1.565; in data set [5] (Example 26: melanin/soya PC complex in M818, Concn 2.5 mg/ml), 2.857.

Source of the values: patent US6368619B1, “Hydrophobic preparations of hydrophilic species and process for their preparation” (Provalis UK Limited, priority 1993, dated 2002).
